Article PMC12092003

What was measured:
[1] = molecular target: HA-Ctla-4 (zebrafish cytotoxic T lymphocyte antigen-4, from pCDNA3.1-HA-Ctla-4) (zebrafish); test: Western blot under non-reducing and reducing conditions; lysate of HEK293T cells transfected with pCDNA3.1-HA-Ctla-4 for 48 hr, mixed with loading buffer without or with β-ME; empty plasmid as control
[2] = molecular target: Cd28 with EGFP-tag (labeled protein of the MST assay) (zebrafish); test: MST; Monolith NT.115; EGFP-tagged Cd28 or Ctla-4 as labeled protein, unlabeled Cd80/86 titrated (initial 3.2 µM, 16 doubling dilutions), 10 min at room temperature, measured at 25 °C, 40% LED, medium MST power
[3] = molecular target: Ctla-4 with EGFP-tag (labeled protein of the MST assay) (zebrafish); test: as above

Substance	stoichiometry N [1]	Kd [2] [nM]	Kd [3] [nM]
HA-Ctla-4 (zebrafish cytotoxic T lymphocyte antigen-4, from pCDNA3.1-HA-Ctla-4) (receptor)	2		
recombinant soluble Cd80/86 (Cd80/86 extracellular domain) (domain or fragment)		2640	500
